In the assay the target is T1, Human CD117 antigen (human, UniProt P10721 26-520).
T1 construct: also called c-kit; Stem Cell Factor Receptor
The experiment in a line: chemical cross-linking, High-Mass MALDI MS and nLC-Orbitrap MS of the complex.

T1 sequence (P10721 other isoform, or with tags, fused parts or gaps limits assumed): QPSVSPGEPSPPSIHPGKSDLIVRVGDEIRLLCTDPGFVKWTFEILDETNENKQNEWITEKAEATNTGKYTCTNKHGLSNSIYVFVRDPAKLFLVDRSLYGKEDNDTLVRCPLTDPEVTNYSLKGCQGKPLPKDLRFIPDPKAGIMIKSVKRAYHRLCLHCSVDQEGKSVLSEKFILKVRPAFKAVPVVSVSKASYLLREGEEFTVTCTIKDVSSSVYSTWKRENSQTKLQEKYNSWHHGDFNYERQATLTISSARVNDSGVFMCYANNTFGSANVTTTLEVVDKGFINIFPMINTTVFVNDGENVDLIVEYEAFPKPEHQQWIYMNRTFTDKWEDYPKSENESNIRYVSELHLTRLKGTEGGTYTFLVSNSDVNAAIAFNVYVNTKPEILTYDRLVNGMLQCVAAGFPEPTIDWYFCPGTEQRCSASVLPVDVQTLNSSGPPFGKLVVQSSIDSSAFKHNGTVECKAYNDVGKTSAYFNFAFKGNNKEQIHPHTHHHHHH

B1: anti-CD117 antibody 85 (Ab85) (antibody, V domains shown)
VH: EVQLVQSGAEVKKPGESLKISCKGSGYSFTNYWIGWVRQMPGKGLEWMAIINPRDSDTRYRPSFQGQVTISADKSISTAYLQWSSLKASDTAMYYCARHGRGYEGYEGAFDIWGQGTLVTVSS
VL: DIQMTQSPSSLSASVGDRVTITCRSSQGIRSDLGWYQQKPGKAPKLLIYDASNLETGVPSRFSGSGSGTDFTLTISSLQPEDFATYYCQQANGFPLTFGGGTKVEIK
notes: Human antibody derived from CK6; also called Antibody HC-85/LC-85
Turning to B1, the binding result is “binds”.

The values are drawn from US20220177575A1 (MAGENTA THERAPEUTICS, published 2022).
